The target of assay [1] is human TLR2 (endogenous, on U937 cells) (human, UniProt O60603 21-784). As to the kind of experiment: cell-based or functional assay.
Assay [2] addresses T1, human TLR2 protein (R&D systems Co., 2616 TR/CF) (human, UniProt O60603 21-590).
T1 construct: Bought protein captured on an anti-His IgG chip; not shown: His tag implied by capture on anti-His IgG
As to the kind of experiment: SPR (Biacore T200), human TLR2 captured on anti-His IgG, antibody as analyte, bivalent analyte model. Here is the method:
In order to evaluate the binding activity of the tandem form a prepared in Example 1 to the human TLR2, SPR analysis was performed. The tandem form c and the TLR2-IgG were used as the reference antibody. For SPR analysis, Biacore T200 (GE Healthcare Japan Corporation) was used. Anti-His IgG (attached to His Capture Kit) was immobilized on CMS sensor chip using His Capture Kit (GE Healthcare Japan Corporation, 28-9950-56) and Amine Coupling Kit (GE Healthcare Japan Corporation, BR-1000-50). […] Thereafter, a solution (eight step, two fold serial dilution in the concentration range of final concentration from 100 nM to 0.781 nM) obtained by serially diluting each purified antibody (tandem form a, tandem form c, or TLR 2-IgG) with HBS-EP+buffer was added at a flow rate of 50 μL/min for 2 minutes, and the binding between the purified antibody and TLR 2 was measured. Next, HBS-EP+buffer was added at a flow rate of 50 μL/min for 5 minutes, and dissociation of the purified antibody and the human TLR2 was measured. Bivalent analyte model, Rmax was analyzed by Fit local, a binding rate constant (kₐ) and a dissociation rate constant (kd) were calculated, and kd was divided by kₐ to calculate the binding dissociation constant (KD).
In general terms: Surface plasmon resonance follows binding to a sensor surface in real time, without labels.

Assay [3] has as its target T2, human TLR4/MD2 (on cells) (human, UniProt O00206 24-839; Q9Y6Y9 19-160). Put plainly: cell-based or functional assay.
Assay [4] has as its target T2, human TLR4/MD2 (on cells). Put plainly: cell ELISA on human TLR4/MD2 expressing HEK 293 cells. Here is the method: In order to evaluate the binding activity of the tandem form a (bispecific antibody format having the anti-human TLR2 antibody portion on the outer side and the anti-human TLR4 antibody portion on the inner side) prepared in Example 1 to the human TLR4, cell ELISA was performed. As reference antibodies, the tandem form c and the TLR4-IgG were used. Human TLR4/MD2 expressing HEK 293 cells were seeded at 1×10⁴ cells/well in a BD Bio Coat poly D-lysine 384 well plate (Becton Dickinson Co., Ltd.) using an α-MEM culture medium (Life Technologies Co., Ltd.) and incubated overnight. […] Twenty minutes later, 25 μL of 1 M sulfuric acid was added to stop the color reaction, and the color intensity thereof was measured with Safire II (Tecan Co., Ltd.) to evaluate the binding activity of the antibody. Using the obtained measurement results, 50% effective concentration (EC₅₀) of each antibody was calculated from 4 parameter logistic curve regression by statistical analysis software GraphPad Prism (GraphPad Software Co., Ltd.).

Assay [5] concerns the target T2, human TLR4/MD2 (on cells). As to the kind of experiment: cell-based or functional assay. This is another data set of the same source.

Where two headings read alike, the source gives them in different places.

T2 sequence (O00206 24-839, chain 1 of 2): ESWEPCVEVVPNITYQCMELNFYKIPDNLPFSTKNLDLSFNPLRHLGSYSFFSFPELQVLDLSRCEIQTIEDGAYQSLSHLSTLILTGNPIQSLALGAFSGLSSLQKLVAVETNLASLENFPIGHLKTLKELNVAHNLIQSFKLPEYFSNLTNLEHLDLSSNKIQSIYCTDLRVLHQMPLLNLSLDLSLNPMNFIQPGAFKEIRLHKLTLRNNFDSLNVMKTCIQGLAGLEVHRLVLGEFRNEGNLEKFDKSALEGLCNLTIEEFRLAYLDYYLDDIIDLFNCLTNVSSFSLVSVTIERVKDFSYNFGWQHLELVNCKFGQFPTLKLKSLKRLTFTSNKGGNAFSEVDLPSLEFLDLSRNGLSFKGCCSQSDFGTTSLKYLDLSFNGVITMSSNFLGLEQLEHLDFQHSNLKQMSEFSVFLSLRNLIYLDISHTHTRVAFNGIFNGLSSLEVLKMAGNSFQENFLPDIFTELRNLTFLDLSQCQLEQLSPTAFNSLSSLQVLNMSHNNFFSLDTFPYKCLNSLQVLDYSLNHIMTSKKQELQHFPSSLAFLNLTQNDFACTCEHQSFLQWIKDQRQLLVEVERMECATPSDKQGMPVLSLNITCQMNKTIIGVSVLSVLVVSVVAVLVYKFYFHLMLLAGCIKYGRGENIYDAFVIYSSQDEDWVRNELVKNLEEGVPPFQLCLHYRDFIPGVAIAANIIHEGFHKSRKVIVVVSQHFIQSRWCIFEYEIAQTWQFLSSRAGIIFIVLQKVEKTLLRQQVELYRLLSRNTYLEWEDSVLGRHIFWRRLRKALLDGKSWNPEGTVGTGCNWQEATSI
T2 sequence (Q9Y6Y9 19-160, chain 2 of 2): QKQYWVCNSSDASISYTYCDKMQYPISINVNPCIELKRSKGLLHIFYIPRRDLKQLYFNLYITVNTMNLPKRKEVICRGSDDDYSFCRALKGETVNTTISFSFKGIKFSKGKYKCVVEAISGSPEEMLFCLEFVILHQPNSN
T1 sequence (O60603 21-590): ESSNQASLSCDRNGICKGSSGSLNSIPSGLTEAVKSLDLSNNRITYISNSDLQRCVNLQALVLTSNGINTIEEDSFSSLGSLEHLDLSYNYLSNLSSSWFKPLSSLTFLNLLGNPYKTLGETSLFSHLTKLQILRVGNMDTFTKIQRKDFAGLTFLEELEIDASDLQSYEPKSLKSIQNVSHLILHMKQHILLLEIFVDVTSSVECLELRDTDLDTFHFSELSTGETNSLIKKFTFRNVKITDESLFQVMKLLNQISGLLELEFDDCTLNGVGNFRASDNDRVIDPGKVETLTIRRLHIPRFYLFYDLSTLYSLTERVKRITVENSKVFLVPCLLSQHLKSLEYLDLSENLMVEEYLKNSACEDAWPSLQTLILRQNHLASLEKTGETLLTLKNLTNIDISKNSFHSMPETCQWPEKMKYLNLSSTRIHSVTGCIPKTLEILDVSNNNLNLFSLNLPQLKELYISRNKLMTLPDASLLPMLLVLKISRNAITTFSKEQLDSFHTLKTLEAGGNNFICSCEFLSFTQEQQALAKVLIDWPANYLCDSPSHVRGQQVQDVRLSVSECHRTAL
human TLR2 (endogenous, on U937 cells), sequence (O60603 21-784): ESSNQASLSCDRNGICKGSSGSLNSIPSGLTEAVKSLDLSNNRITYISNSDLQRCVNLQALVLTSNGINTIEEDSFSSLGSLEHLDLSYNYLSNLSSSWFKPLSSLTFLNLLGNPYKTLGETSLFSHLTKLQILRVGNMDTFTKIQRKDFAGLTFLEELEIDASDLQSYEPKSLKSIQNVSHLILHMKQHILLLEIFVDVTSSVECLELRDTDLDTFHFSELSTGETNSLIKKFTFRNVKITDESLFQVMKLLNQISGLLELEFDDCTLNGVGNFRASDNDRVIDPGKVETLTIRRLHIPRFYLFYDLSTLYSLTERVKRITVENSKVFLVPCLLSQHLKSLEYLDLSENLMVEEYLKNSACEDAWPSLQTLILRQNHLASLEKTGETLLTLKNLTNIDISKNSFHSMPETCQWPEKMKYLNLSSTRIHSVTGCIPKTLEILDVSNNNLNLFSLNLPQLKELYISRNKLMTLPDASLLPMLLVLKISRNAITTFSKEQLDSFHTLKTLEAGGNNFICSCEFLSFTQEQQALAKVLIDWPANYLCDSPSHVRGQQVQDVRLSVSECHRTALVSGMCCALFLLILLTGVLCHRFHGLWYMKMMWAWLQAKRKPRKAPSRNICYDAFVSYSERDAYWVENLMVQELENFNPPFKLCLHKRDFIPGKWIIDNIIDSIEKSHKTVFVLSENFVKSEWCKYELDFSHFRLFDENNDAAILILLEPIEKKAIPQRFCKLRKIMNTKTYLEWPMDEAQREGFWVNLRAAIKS

B1: TLR2-IgG (anti-human TLR2 antibody of IgG type) (antibody, V domains shown)
VH: QVQLQESGPGLVKPSETLSLTCTVSGGSISSFYWTWIRQPPGKGLEWIGYIHYSGSTNYNPSLKSRVTISVDTSKNQFSLTLSSVTAADTAVYYCARRRSMNWFDPWGQGTLVIVSS
VL: AIQMTQSPSSLSASVGDRVTITCRASQVIRNDLGWYQQKPGKAPKFLIYAASSLQSGVPSRFSGSGSGTDFTLTISSLQPEDFATYYCLQDYNYPLTFGGGTKVEIKR
notes: it says variable regions and human Iggamma1 / Igkappa constant regions as used in tandem form a
On to B1, for which the “IC50 (read off the curve); inhibition of Pam2CSK4-induced IL-6 production in U937 cells” value in assay [1] was roughly 0.1 nM. For the same molecule, the Kd in assay [2] was determined as 2.69 nM.

B2: Tandem form a (protease recognition sequence SEQ ID NO: 5; light chain linker SEQ ID NO: 9) (bispecific antibody)
chain 1: not shown
chain 2: AIQMTQSPSSLSASVGDRVTITCRASQVIRNDLGWYQQKPGKAPKFLIYAASSLQSGVPSRFSGSGSGTDFTLTISSLQPEDFATYYCLQDYNYPLTFGGGTKVEIKRTVAAPSVFIFPPSDEQLKSGTASVVCLLNNFYPREAKVQWKVDNALQSGNSQESVTEQDSKDSTYSLSSTLTLSKADYEKHKVYACEVTHQGLSSPVTKSFNRGEC
chain 3: not shown
For the molecule B2, the Kd in assay [2] worked out at 2.32 nM.

B3: TLR4-IgG (anti-human TLR4 antibody of IgG type) (antibody, V domains shown)
VH: EVQLVESGGGLVQPGGSLRLSCAASGFTFDTYAMHWVRQAPGKGLEWVAGISWNSGNIGYADSVKGRFTISRDNSKNTLYLQMNSLRAEDTAVYYCAKDWDNWNLFDYWGQGTLVTVSS
VL: DIQMTQSPSSLSASVGDRVTITCRASQSISSWLAWYQQKPGKAPKLLIYKASSLESGVPSRFSGSGSGTDFTLTISSLQPEDFATYYCQQYSSYSWTFGQGTKVEIKR
notes: as for B1
For B3, the “IC50 (M), Neutralization Activity to Human TLR4 (LPS-induced IL-6 production inhibition, U937 cells)” value in assay [3] and in assay [5] was 2.2e-12 M in each case. In assay [4], this molecule gave an EC50 of 0.38 nM.

For orientation: EC50 means the concentration needed to bring the measured effect to its halfway point. A lower EC50 goes with an effect from little substance.

The values are drawn from US20170306053A1 (Astellas, published 2017).
